Experimental findings from article PMC2805019 (ACS chemical biology, 2008) are described below.

Broadly, the Kd is a measure of binding affinity in units of concentration.

Data set [1] has as its target apoptosis inducing factor (AIF) (Homo sapiens, UniProt O95831). Kind of data set: ITC. Type of data set: binding.
In data set [2] the target is T1, AIF (57 kDa form, AIFΔ1-121) (human, UniProt O95831 122-613). The data set is described as follows: photonic crystal biosensor.
The target of data set [3] is T2, MazEF toxin-antitoxin complex (UniProt P0AE72;P0AE70 1-82;1-111). The data set is described as follows: photonic crystal biosensor.
T2 sequence (P0AE72 whole entry, chain 1 of 2): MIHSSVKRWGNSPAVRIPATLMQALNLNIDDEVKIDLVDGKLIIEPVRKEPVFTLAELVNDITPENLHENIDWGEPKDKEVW
T2 sequence (P0AE70 whole entry, chain 2 of 2): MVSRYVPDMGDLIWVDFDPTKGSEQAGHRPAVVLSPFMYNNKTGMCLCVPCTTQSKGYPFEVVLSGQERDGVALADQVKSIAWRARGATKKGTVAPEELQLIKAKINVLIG
The target in data set [4] is T2, MazEF toxin-antitoxin complex. Kind of data set: competition.
Data set [5] shares this target. Kind of data set: photonic crystal biosensor. The source holds these as a separate data set.
Data set [6] has as its target T1, AIF (57 kDa form, AIFΔ1-121). Kind of data set: competition.

T1 sequence (O95831 122-613, stated change not applied): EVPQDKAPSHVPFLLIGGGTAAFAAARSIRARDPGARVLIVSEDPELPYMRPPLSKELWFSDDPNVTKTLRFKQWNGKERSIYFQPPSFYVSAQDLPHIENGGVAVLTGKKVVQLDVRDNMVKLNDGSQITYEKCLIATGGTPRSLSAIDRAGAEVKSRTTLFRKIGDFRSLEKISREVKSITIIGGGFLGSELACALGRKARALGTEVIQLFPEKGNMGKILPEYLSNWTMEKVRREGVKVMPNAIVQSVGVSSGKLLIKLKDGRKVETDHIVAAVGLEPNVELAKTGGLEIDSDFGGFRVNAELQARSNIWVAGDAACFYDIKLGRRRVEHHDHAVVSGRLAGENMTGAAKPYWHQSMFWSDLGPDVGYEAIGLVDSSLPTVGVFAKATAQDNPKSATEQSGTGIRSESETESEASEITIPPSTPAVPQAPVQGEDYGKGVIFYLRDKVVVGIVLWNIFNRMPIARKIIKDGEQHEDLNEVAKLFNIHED
Chain of apoptosis inducing factor (AIF) (O95831 122-613): as the sequence (O95831 122-613, stated change not applied) above

On to `O=C(O)C1=CC(=C(c2ccc(O)c(C(=O)O)c2)c2ccc(O)c(C(=O)O)c2)C=CC1=O` [ATA, aurin tricarboxylic acid], for which binding in data set [1] was put at a Kd of 19 ± 5 µM.

B1: randomized 30 bp dsDNA, biotinylated (dsDNA)
DNA 1: CCGGTACGATACGACGATCGATAGTAGGCC
DNA 2: GGCCTACTATCGATCGTCGTATCGTACCGG
Turning to B1, the binding result in data set [2] is on record as “binds”.

B2: MazEF promoter DNA, biotinylated (dsDNA)
DNA 1: GCTCGTATCTACAATGTAGATTGATATATACTGTATCTACATATGATAGC
DNA 2: GCTATCATATGTAGATACAGTATATATCAATCTACATTGTAGATACGAGC
On to B2, for which the binding result in data set [3] is given as “binds”.

B3: MazEF promoter DNA, nonbiotinylated (dsDNA)
DNA 1: GCTCGTATCTACAATGTAGATTGATATATACTGTATCTACATATGATAGC
DNA 2: GCTATCATATGTAGATACAGTATATATCAATCTACATTGTAGATACGAGC
Turning to B3, the binding result in data set [4] is listed as “binds”.

B4: alternating GC control DNA, biotinylated (dsDNA)
DNA 1: GCGCGCGCGCGCGCGCGCGCGCGCGCGCGCGCGCGCGCGCGCGCGCGCGC
DNA 2: CGCGCGCGCGCGCGCGCGCGCGCGCGCGCGCGCGCGCGCGCGCGCGCGCG
Take B4: in data set [5], the binding result is “no binding”.

B5: randomized 30 bp dsDNA, nonbiotinylated (dsDNA)
DNA 1: CCGGTACGATACGACGATCGATAGTAGGCC
DNA 2: GGCCTACTATCGATCGTCGTATCGTACCGG
Take B5: in data set [6], the binding result is “binds”.
